These results are taken from PMC11146590.

This data set deals with Oct4 C48S (purified) (Mus musculus, UniProt P20263 1-352, C178S). Put plainly: EMSA.
Oct4 C48S (purified), sequence (P20263 whole entry C178S): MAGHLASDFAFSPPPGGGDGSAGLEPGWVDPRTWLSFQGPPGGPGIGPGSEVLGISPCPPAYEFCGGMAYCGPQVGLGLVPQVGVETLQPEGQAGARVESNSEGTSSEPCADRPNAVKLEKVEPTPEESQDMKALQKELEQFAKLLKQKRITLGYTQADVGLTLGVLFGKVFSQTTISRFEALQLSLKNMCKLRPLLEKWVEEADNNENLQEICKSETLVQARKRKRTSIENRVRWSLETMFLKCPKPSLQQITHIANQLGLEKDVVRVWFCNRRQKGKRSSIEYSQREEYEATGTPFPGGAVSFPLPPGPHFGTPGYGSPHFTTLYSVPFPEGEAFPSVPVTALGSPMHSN

B1: wild-type octamer probe (dsDNA)
DNA 1: TGTCGAATGCAAATCACT
DNA 2: AGTGATTTGCATTCGACA
Take B1: the binding result is “binds”.
